Assay [1] concerns the target GluA3 amino-terminal domain expressed in HEK293T cells (UniProt P19492). The assay is described as follows: AUC.
Assay [2] shares this target. Put plainly: AUC. This is another data set of the same source.
For assay [3], the target named is GluA2S amino-terminal domain expressed in GnTI- cells and digested with EndoH. The assay is described as follows: dynamic light scattering.
The target is the same in assay [4]. The assay is described as follows: AUC.
Assay [5] shares this target. The assay is described as follows: SEC-MALS. (In general: In gel filtration, larger molecules generally elute earlier.)
For assay [6] the target is unchanged. Put plainly: AUC. This is another data set of the same source.
Assay [7] has the same target. The assay is described as follows: AUC. This is another data set of the same source.
Assay [8] shares this target. Put plainly: AUC. The source holds these as a separate data set.
For assay [9] the target is unchanged. The assay is described as follows: AUC. This is another data set of the same source.
Assay [10] deals with DyLight405-labeled, EndoH-digested GluA2S amino-terminal domain. The assay is described as follows: fluorescence polarisation.
The target is the same in assay [11]. The assay is described as follows: fluorescence polarisation. This is another data set of the same source.
For assay [12], the target named is GluA2S amino-terminal domain expressed in GnTI- cells and digested with EndoH. Put plainly: AUC. The source holds these as a separate data set.
Assay [13] addresses GluA2S amino-terminal domain expressed in HEK293S GnTI- cells (high mannose glycans). Put plainly: SEC-MALS.
For assay [14] the target is unchanged. The assay is described as follows: AUC.
Assay [15] has as its target FAM-labeled, EndoH-digested GluA2S amino-terminal domain. The assay is described as follows: AUC.
Assay [16] shares this target. The assay is described as follows: AUC. This is another data set of the same source.
For assay [17] the target is unchanged. The assay is described as follows: AUC. This is another data set of the same source.
Assay [18] addresses GluA2S amino-terminal domain expressed in HEK293T cells (complex glycosylation). Put plainly: dynamic light scattering.
Assay [19] has the same target. Put plainly: SEC-MALS.
For assay [20] the target is unchanged. The assay is described as follows: AUC.
Assay [21] shares this target. The assay is described as follows: AUC. The source holds these as a separate data set.

Several values for one entry are separate records, joined by “and”; a condition that tells them apart may be missing. Identical values can stand only once. Like-named read-outs stand apart in the source and are kept apart here. Some results are limits rather than exact numbers.

GluA2S amino-terminal domain expressed in HEK293T cells (complex glycosylation), sequence (P19491 22-883, one chain of several): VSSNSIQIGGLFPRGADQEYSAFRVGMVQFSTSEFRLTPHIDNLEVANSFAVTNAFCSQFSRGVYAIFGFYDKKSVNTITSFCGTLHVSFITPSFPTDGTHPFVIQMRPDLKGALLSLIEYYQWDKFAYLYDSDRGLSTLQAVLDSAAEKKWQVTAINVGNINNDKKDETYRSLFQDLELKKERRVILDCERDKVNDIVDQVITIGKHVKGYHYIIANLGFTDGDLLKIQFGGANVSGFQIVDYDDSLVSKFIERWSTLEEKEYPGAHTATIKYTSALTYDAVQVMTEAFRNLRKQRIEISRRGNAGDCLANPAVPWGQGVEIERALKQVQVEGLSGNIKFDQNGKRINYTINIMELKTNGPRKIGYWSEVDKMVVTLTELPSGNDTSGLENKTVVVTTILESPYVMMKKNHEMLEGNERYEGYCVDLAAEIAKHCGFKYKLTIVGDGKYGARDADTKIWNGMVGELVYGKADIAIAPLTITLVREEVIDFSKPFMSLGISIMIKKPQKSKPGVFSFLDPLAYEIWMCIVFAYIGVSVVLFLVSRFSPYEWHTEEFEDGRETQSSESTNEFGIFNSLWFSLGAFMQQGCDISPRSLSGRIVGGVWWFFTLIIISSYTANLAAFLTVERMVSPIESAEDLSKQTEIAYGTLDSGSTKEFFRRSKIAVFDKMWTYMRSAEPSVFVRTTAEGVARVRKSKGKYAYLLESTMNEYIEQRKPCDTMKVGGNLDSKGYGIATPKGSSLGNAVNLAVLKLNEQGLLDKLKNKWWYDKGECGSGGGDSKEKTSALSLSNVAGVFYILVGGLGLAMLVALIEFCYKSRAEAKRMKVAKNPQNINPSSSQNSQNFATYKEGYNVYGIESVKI
GluA2S amino-terminal domain expressed in GnTI- cells and digested with EndoH, sequence (P19491 22-883): as the sequence (P19491 22-883, one chain of several) above
FAM-labeled, EndoH-digested GluA2S amino-terminal domain, sequence (P19491 22-883): as the sequence (P19491 22-883, one chain of several) above
GluA2S amino-terminal domain expressed in HEK293S GnTI- cells (high mannose glycans), sequence (P19491 22-883): as the sequence (P19491 22-883, one chain of several) above

For “GluA3 amino-terminal domain expressed in HEK293T cells (from UniProt P19492 23-888) (domain or fragment)”, the equilibrium dissociation constant (Kd) was greater than 162 µM in assay [1] and 3.1 µM in [2].
As to “GluA2S amino-terminal domain expressed in GnTI- cells and digested with EndoH (domain or fragment)”, the stoichiometry N in assay [3] and in assay [5] was 2 in each case. Further, the Kd in assay [4] was 17 nM; in [6] it was greater than 2.5 mM; in [7], 30 nM; in assay [8], 570 nM; in assay [9], 160 nM and 284 nM; in [10], 10.8 nM and 11.3 nM and 8.43 nM. Also, the Kd in assay [11] was 9.7 nM; in assay [12] it was 5.6 nM and 8.3 nM and 9.7 nM.
In [13], “GluA2S amino-terminal domain expressed in HEK293S GnTI- cells (high mannose glycans) (domain or fragment)” had a stoichiometry N of 2. This substance also came in with an equilibrium dissociation constant (Kd) in [14] of 11 nM.
Regarding “FAM-labeled, EndoH-digested GluA2S amino-terminal domain (domain or fragment)”, the Kd in assay [15] is 14.9 nM; in assay [16] it was 26 nM; in assay [17] it was 5.3 nM.
On to “GluA2S amino-terminal domain expressed in HEK293T cells (complex glycosylation) (domain or fragment)”, for which the stoichiometry N in assay [18] and in assay [19] was 2 each time. Further, the Kd in assay [20] was 6 nM; in [21] it was 8.3 nM.

For orientation: Kd means the concentration at which binding is half-saturated. Read a high Kd as weaker binding. A word on the stoichiometry N: it is a count of units in the complex or per binding partner.
